One data set concerns the target Sox2;Pax6 (Mus musculus (B6);Mus musculus (B6), UniProt P48432;P63015 1-319;1-422, |). Description: EMSA; supershift with anti-Pax6; EMSA: 20 ng GST-fusion protein, 20 mM HEPES pH 7.8, 45 mM KCl, 10 mM NaCl, 1 mM EDTA, 1 mM DTT, 10% glycerol, 0.2 ug/uL BSA, 0.1% NP-40, 50 ng poly-dIdC; RT 30. Conditions: protein: recombinant;recombinant; tags: GST (N-terminal, pGEX-6P-1);GST (N-terminal, pGEX-6P-1); copies: 1;1; label: 32P. (In EMSA bound probe runs differently from free probe, usually more slowly.)

The next data set deals with Sox2;Brn2 (Mus musculus (B6);Mus musculus (B6), UniProt P48432;P31360 1-319;1-445, |). Description: EMSA; supershift with anti-Brn2; EMSA: 20 ng GST-fusion protein, 20 mM HEPES pH 7.8, 45 mM KCl, 10 mM NaCl, 1 mM EDTA, 1 mM DTT, 10% glycerol, 0.2 ug/uL BSA, 0.1% NP-40, 50 ng poly-dIdC; RT 30. Conditions: protein: recombinant;recombinant; tags: GST (N-terminal, pGEX-6P-1);GST (N-terminal, pGEX-6P-1); copies: 1;1; label: 32P.

The results in this text go back to article PMC3713010, “Sox2 Transcriptionally Regulates Pqbp1, an Intellectual Disability-Microcephaly Causative Gene, in Neural Stem Progenitor Cells”.

Sequence of Sox2;Brn2 (P48432 whole entry, chain 1 of 2, the tested form may be a part): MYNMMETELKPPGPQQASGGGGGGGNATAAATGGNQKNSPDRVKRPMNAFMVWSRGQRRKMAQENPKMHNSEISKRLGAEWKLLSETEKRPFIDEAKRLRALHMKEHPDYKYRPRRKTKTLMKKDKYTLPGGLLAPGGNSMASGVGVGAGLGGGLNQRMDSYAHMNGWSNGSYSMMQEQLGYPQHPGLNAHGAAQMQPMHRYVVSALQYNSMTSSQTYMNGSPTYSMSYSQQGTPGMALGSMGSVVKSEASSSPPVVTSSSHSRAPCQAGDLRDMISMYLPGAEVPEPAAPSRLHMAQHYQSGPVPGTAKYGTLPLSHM
Sequence of Sox2;Brn2 (P31360 whole entry, chain 2 of 2, the tested form may be a part): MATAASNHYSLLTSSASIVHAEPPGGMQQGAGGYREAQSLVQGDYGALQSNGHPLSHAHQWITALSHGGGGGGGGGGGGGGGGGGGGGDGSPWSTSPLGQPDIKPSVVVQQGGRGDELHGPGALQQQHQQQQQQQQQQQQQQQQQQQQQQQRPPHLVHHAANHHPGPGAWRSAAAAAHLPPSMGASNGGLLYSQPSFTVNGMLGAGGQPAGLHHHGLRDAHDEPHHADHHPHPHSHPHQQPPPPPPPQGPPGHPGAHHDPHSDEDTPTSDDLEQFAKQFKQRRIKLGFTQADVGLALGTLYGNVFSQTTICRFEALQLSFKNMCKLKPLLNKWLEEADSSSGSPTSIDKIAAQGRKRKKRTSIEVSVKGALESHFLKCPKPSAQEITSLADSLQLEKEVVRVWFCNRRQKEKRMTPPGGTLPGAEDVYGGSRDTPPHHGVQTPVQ
Sequence of Sox2;Pax6 (P48432 whole entry, chain 1 of 2, the tested form may be a part): as the sequence (P48432 whole entry, chain 1 of 2, the tested form may be a part) above
Sequence of Sox2;Pax6 (P63015 whole entry, chain 2 of 2, the tested form may be a part): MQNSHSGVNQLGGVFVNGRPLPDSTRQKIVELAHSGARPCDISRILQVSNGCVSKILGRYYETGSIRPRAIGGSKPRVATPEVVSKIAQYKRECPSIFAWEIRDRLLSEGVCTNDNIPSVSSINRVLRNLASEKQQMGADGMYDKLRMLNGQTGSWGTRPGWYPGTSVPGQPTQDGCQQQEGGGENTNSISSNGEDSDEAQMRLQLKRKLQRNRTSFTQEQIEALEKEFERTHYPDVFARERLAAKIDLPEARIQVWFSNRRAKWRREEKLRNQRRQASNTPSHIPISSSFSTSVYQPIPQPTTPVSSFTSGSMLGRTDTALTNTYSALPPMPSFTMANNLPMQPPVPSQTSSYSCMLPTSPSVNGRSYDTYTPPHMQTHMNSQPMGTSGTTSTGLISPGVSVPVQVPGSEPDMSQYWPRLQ

B1: Sox2-Pax6 consensus probe (dsDNA)
DNA 1: GGGAAATATTCATTGTTGTTGCTCACCTACCATGGA
DNA 2: TCCATGGTAGGTGAGCAACAACAATGAATATTTCCC
Regarding B1, the binding result with Sox2;Pax6 is on record as “binds”.

B2: Sox2-Brn2 consensus probe (dsDNA)
DNA 1: GGGTAGTGTGGACAAAAGGCAATAATTAGCATGAGAATC
DNA 2: GATTCTCATGCTAATTATTGCCTTTTGTCCACACTACCC
B2: the binding result in the data set with Sox2;Brn2 is “binds”.
